Series [1] deals with the molecule itself. Description: SEC-MALS; Superdex 200 10/30 GL, SEC-UV/LS/RI; Ca2+-free apo state, no added CaCl2, 1 mM EDTA; 20 mM imidazole in the buffer for HPC2 Cterm; three injected amounts.
Series [2] concerns the molecule itself. The series is described as follows: SEC-MALS; Superdex 200 10/30 GL, SEC-UV/LS/RI; Ca2+-bound holo state, 20 mM CaCl2 in the buffer; 20 mM imidazole in the buffer for HPC2 Cterm; three injected amounts for HPC2 Cterm and SUPC2 Ccore.

B1: human polycystin-2 C-terminal construct, which includes the full-length cytoplasmic tail (HPC2 Cterm) (domain or fragment, UniProt Q13563 704-968, looked up)
chain: IRKGYHKALVKLKLKKNTVDDISESLRQGGGKLNFDELRQDLKGKGHTDAEIEAIFTKYDQDGDQELTEHEHQQMRDDLEKEREDLDLDHSSLPRPMSSRSFPRSLDDSEEDDDEDSGHSSRRRGSISSGVSYEEFQVLVRRVDRMEHSIGSIVSKIDAVIVKLEIMERAKLKRREVLGRLLDGVAEDERLGRDSEIHREQMERLVREELERWESDDAASQISHGLGTPVGLNGQPRPRSSRPSSSQSTEGMEGAGGNGSSNVHV
notes: polycystin-2 (PC2), human, residues I704-V968, numbered on full-length human PC2; Printed monomer mass 32.2 kDa; also called C-terminal cytoplasmic tail of human PC2; HPC Cterm
As to B1, the “stoichiometry N” value in series [1] and in series [2] was 3 each time.

Broadly, the stoichiometry N is the number of molecules, sites or subunits per partner or assembly.

Source of the values: article PMC4400361, “Oligomerization of the Polycystin-2 C-terminal Tail and Effects on Its Ca^2+-binding Properties*” (The Journal of Biological Chemistry, 2015).
